Results as given in US20130225434A1 (BOARD OF TRUSTEES OF THE UNIVERSITY OF ILLINOIS, published 2013).
Square brackets hold non-standard residues; d marks the D form. * marks the point of attachment. Biotin = O=C1N[C@H]2[C@H](CS[C@H]2CCCCC(=O)*)N1; pT = C[C@@H](OP(=O)(O)O)[C@H](N)C(=O)O; pS = N[C@@H](COP(=O)(O)O)C(=O)O

T1: BRCT-pS (SMILES …)
T1 construct: also called Biotin-BRCT-pS
T1 peptide: Biotin-SGSAYDI[pS]QVFPFAKKK-NH2

T2: Rad9-pT peptide with SGS linker (SGS-SLEVpTEADATFYAKK) (yeast, SMILES …)
T2 construct: also called cognate pT peptide; Rad-pT
T2 peptide: Biotin-SGSSLEV[pT]EADATFYAKK-NH2

B1: A7 variant of the FHA1 domain, phage-displayed (designed binder, not shown: small tags and cut ends)
chain: MENITQPTQQSTQATQRFLIEKFSQEQIGENIVSRVISTTGQIPIRDLSADISQVLKEKRSIKKVWTFGRNPACDYHLGNISRLSNKHFQILLGEDGNLLLNDISTNGTWLNGQKVEKNSYQLLSQGDEITVGVGVESDILSLVIFINDKFKQSLEQNKVDRIRSNLKNT
notes: From the library built on the 3C-3S template
B2: G9 variant of the FHA1 domain, phage-displayed (designed binder, not shown: large carriers; small tags and cut ends)
chain: MENITQPTQQSTRATQRFLIEKFSQEQIGENIVSRVISTTGQIPIRDLSADISQVLKEKRSIKKVWTFGRNPACDYHLGNISRLSNKHFQILLGEDGNLLLNDVSTNGTWLNGQKVEKNSYQLLSQGDEITVGVGVESDILSLVIFINDKFKQSLEQNKVDRISSNLKNT
notes: as for B1
B3: C12 variant of the FHA1 domain, phage-displayed (designed binder, not shown: small tags and cut ends)
chain: MENITQPTQQSTQATQRFLIEKFSQEQIGENIVSRVISTTGQIPIRDLSADISQVLKEKRSIKKVRTFGRNPACDYHLGNISRLSNKHFQILLGEDGNLLLNDISTNGTWLNGQKVEKNSNQLLSQGDEITVGVGVESDILSLVIFINDKFKQSLEQNKVDRIRSNLKNT
notes: as for B1
B4: A10 variant of the FHA1 domain, phage-displayed (designed binder, not shown: small tags and cut ends)
chain: MENITQPTQQSTQATQRFLIEKFSHEQIGENIVSRVISTTGQIPIRDLSADISQVLKEKRSIKKVWTFGRNPACDYHLGNISRLSNKHFQILLGEDGNLLLNDISTNGTWLNGQKVEKNSYQLLSQGDEITVGVGVESDILRLVIFINDKFKQSLEQNKVDRIRSNLKNT
notes: as for B1
B5: K (designed binder)
FHA1 domain displayed on M13 protein III: MENITQPTQQSTQATQRFLIEKFSQEQIGENIVKRVISTTGQIPIRDLSADISQVLKEKRSIKKVWTFGRNPACDYHLGNISRLSNKHFQILLGEDGNLLLNDISTNGTWLNGQKVEKNSNQLLSQGDEITVGVGVESDILSLVIFINDKFKQSLEQNKVDRIRSNLKNT
notes: also called S34K
B6: D (designed binder)
FHA1 domain displayed on M13 protein III: MENITQPTQQSTQATQRFLIEKFSQEQIGENIVDRVISTTGQIPIRDLSADISQVLKEKRSIKKVWTFGRNPACDYHLGNISRLSNKHFQILLGEDGNLLLNDISTNGTWLNGQKVEKNSNQLLSQGDEITVGVGVESDILSLVIFINDKFKQSLEQNKVDRIRSNLKNT
notes: also called S34D
B7: T (designed binder)
FHA1 domain displayed on M13 protein III: MENITQPTQQSTQATQRFLIEKFSQEQIGENIVTRVISTTGQIPIRDLSADISQVLKEKRSIKKVWTFGRNPACDYHLGNISRLSNKHFQILLGEDGNLLLNDISTNGTWLNGQKVEKNSNQLLSQGDEITVGVGVESDILSLVIFINDKFKQSLEQNKVDRIRSNLKNT
notes: also called S34T
B8: N (designed binder)
FHA1 domain displayed on M13 protein III: MENITQPTQQSTQATQRFLIEKFSQEQIGENIVNRVISTTGQIPIRDLSADISQVLKEKRSIKKVWTFGRNPACDYHLGNISRLSNKHFQILLGEDGNLLLNDISTNGTWLNGQKVEKNSNQLLSQGDEITVGVGVESDILSLVIFINDKFKQSLEQNKVDRIRSNLKNT
notes: also called S34N
B9: G (designed binder)
FHA1 domain displayed on M13 protein III: MENITQPTQQSTQATQRFLIEKFSQEQIGENIVGRVISTTGQIPIRDLSADISQVLKEKRSIKKVWTFGRNPACDYHLGNISRLSNKHFQILLGEDGNLLLNDISTNGTWLNGQKVEKNSNQLLSQGDEITVGVGVESDILSLVIFINDKFKQSLEQNKVDRIRSNLKNT
notes: also called S34G
B10: H (designed binder)
FHA1 domain displayed on M13 protein III: MENITQPTQQSTQATQRFLIEKFSQEQIGENIVHRVISTTGQIPIRDLSADISQVLKEKRSIKKVWTFGRNPACDYHLGNISRLSNKHFQILLGEDGNLLLNDISTNGTWLNGQKVEKNSNQLLSQGDEITVGVGVESDILSLVIFINDKFKQSLEQNKVDRIRSNLKNT
notes: also called S34H
B11: R (designed binder)
FHA1 domain displayed on M13 protein III: MENITQPTQQSTQATQRFLIEKFSQEQIGENIVRRVISTTGQIPIRDLSADISQVLKEKRSIKKVWTFGRNPACDYHLGNISRLSNKHFQILLGEDGNLLLNDISTNGTWLNGQKVEKNSNQLLSQGDEITVGVGVESDILSLVIFINDKFKQSLEQNKVDRIRSNLKNT
notes: also called S34R
B12: Q (designed binder)
FHA1 domain displayed on M13 protein III: MENITQPTQQSTQATQRFLIEKFSQEQIGENIVQRVISTTGQIPIRDLSADISQVLKEKRSIKKVWTFGRNPACDYHLGNISRLSNKHFQILLGEDGNLLLNDISTNGTWLNGQKVEKNSNQLLSQGDEITVGVGVESDILSLVIFINDKFKQSLEQNKVDRIRSNLKNT
notes: also called S34Q
B13: P (designed binder)
FHA1 domain displayed on M13 protein III: MENITQPTQQSTQATQRFLIEKFSQEQIGENIVPRVISTTGQIPIRDLSADISQVLKEKRSIKKVWTFGRNPACDYHLGNISRLSNKHFQILLGEDGNLLLNDISTNGTWLNGQKVEKNSNQLLSQGDEITVGVGVESDILSLVIFINDKFKQSLEQNKVDRIRSNLKNT
notes: also called S34P
B14: C (designed binder)
FHA1 domain displayed on M13 protein III: MENITQPTQQSTQATQRFLIEKFSQEQIGENIVCRVISTTGQIPIRDLSADISQVLKEKRSIKKVWTFGRNPACDYHLGNISRLSNKHFQILLGEDGNLLLNDISTNGTWLNGQKVEKNSNQLLSQGDEITVGVGVESDILSLVIFINDKFKQSLEQNKVDRIRSNLKNT
notes: also called S34C
B15: E (designed binder)
FHA1 domain displayed on M13 protein III: MENITQPTQQSTQATQRFLIEKFSQEQIGENIVERVISTTGQIPIRDLSADISQVLKEKRSIKKVWTFGRNPACDYHLGNISRLSNKHFQILLGEDGNLLLNDISTNGTWLNGQKVEKNSNQLLSQGDEITVGVGVESDILSLVIFINDKFKQSLEQNKVDRIRSNLKNT
notes: also called S34E

Target: T1, BRCT-pS
Assay: phage ELISA; biotinylated peptide on Neutravidin, A405
Description: FIG. 9A is a photograph of 96-well plates containing phage supernatants from 96 individual clones, which were isolated after three rounds of selection, heated (50° C.), cooled, and added to microtiter plate wells coated with the phosphopeptide ligand. Binding of phage particles in the wells was monitored with an anti-M13 antibody conjugated to HRP. FIG. 9B is a graph showing the ratio of the ELISA signals for individual phage clones generated with wells contained with the target protein compared to a negative control protein (background).
Phage particles produced from 96 clones isolated after round #3, were heated at 50° C. for 3 hr and cooled to RT. The phage supernatants were then incubated with both the target peptide (500 ng/well) immobilized on NeutrAvidin (1 μg/well) coated plate wells and an unrelated target (background). Binding phage clones were detected using anti-M13 antibody conjugated to HRP (GE Healthcare). The green, colored product of the enzymatic reaction in the microtiter plate wells was measured at 405 nm using the FLUOstar OPTIMA plate reader (BMG Labtech). […] In some cases, the signal over background ratio ranged from 3 to 20 for clones (FIG. 9B).
B1: no binding. B2: no binding. B3: no binding. B4: no binding.

Target: T2, Rad9-pT peptide with SGS linker …
Assay: phage ELISA on immobilized Rad9-pT, phage normalised to the Flag epitope; anti-M13-HRP, A405
Text: Through Kunkel mutagenesis (Yaffe (2002) Nat Rev Mol Cell Bol 3, 177-86), the amino acid residue at position 34 in the β1 strand of the D2 FHA 1 domain was replaced (from the naturally-occurring V) one at a time with each of the other naturally occurring amino acids and binding to the immobilized Rad9-pT peptide was monitored by phage ELISA. Phage binding was detected using anti-M13 antibody conjugated to Horse Radish Peroxidase (HRP). […] All the variants display an N-terminal Flag peptide and the amount of phage particles used for each variant in this experiment has been normalized for this epitope.
To amplify the phage particles displaying the recombinant FHA1 variants, TG1 bacterial cells (5 mL; Stratagene) harboring the phagemid DNA were infected at mid-log (OD₆₀₀ₙₘ=0.5-0.6) with M13K07 helper phage (New England Biolabs) at a multiplicity of infection (MOI) of 20 for 1 h at 37° C. at 150 rpm. Infected cells were centrifuged, and the pellet was resuspended in fresh Luria Bertani medium (LB: 10 g Tryptone, 5 g Yeast extract, and 10 g NaCl per liter) supplemented with 50 μg/mL carbenicillin and 50 μg/ml kanamycin, and phage were amplified overnight at 30° C. at 250 rpm. All of the phage ELISA steps were performed at room temperature. Biotinylated peptides (100 μL, 5 μg/mL) were immobilized on Nunc MaxiSorp flat-bottom 96 well plates (Thermo Fisher Scientific) via NeutrAvidin™ Biotin binding protein (100 μL, 10 μg/mL; Thermo Fisher Scientific) and blocked with 2% skim milk in 1×PBS (200 μL per well).
B5: no binding. B6: no binding. B7: no binding. B8: no binding. B9: no binding. B10: no binding. B11: no binding. B12: no binding. B13: no binding. B14: no binding. B15: no binding.
